Assay results: KR20230039786A (dated 2023)
Where a chain is given by its changes, count along the chain named.

B1: 5B6 anti-NP monoclonal antibody (antibody, V domains shown)
VH: QVQLQESGPELKKPGETVKISCTASGYTFANYGMNWVKQAPGKGLKWMGWINTYTGETTYADDFKGRFAFSLETSASTASLQINKLKNEDTATYFCTRSVLLRSYFDYGGQGTTLTVSS
VL: DIVMTQSPKFMSTSVGDRVSITCEASQDVTTAVAWYQQKPGQSPKLLIYSASYRFAGVPDRFTGSGSGTDFTFTISSVQAEDLAVYYCQQHYSSPLTFGAGTKLELK
B2: 3E10 anti-NP monoclonal antibody (antibody, V domains shown)
VH: EVQLEQSGPELVRPGVSVKISCKGSGYTFTDYAMHWVKQSHAKSLEWIGVISTYSGNTSYNQKFKGKATMTVDKSSSTAYMELARLTAEDSAIYYCANGGNYGFDYWGQGTTLTVSS
VL: DIVLTQSPKFMSTSVGDRVSITCKASQDVGTAVAWYQQKPGQSPRLLIYWTSTRHTGVPDRFTGSGSGTDFTLTISNVQSEDLADYFCQQYSSYPLTFGGGTKLEIK
B3: 5B6.8 anti-NP monoclonal antibody (antibody, V domains shown)
VH: B2 VH with E1Q, E5Q, Q6E
VL: B1 VL with M4I, A56T
B4: 3F10 anti-NP monoclonal antibody (antibody, V domains shown)
VH: EVQLEESGPELKKPGETVKISCKASGYTFTDYSMHWVKQAPGKGLKWMGWINTETGEPTYADDFKGRFAFSLETSASTASLQINNLKNEDTATYFCGSGSRYSWYFDVWGAGTTVTVSS
VL: DIVLTQSPKFMSTSLGDRVSVTCKASQSVGTNVAWFQQNSGQSPKALIYSASYRYSGVPDRFTGSGSGTDFTLTISNVKSEDLAEYFCQQYNSYPLAFGGGTKVEIK

These binders were tested against SARS-CoV NP antigen (Sino Biological) (SARS-CoV, UniProt P59595 1-422) (assay: indirect ELISA, SARS-CoV NP coated, anti-mouse IgG-HRP).
SARS-CoV NP antigen (Sino Biological), sequence (P59595 whole entry): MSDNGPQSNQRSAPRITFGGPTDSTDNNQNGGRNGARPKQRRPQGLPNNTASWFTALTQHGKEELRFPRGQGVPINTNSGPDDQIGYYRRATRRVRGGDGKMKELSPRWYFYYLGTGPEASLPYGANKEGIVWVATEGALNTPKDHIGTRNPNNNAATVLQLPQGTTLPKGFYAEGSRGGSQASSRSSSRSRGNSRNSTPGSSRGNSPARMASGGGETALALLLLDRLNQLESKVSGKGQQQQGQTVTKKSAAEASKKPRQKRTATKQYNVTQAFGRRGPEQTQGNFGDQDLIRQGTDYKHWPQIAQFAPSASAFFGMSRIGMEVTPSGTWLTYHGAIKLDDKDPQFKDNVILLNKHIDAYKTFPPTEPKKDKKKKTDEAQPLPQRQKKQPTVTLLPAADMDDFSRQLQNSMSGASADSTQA
With B1 the EC50 was 4 ng/mL. B2 gave an EC50 of 2 ng/mL. For B3, the EC50 was 1320 ng/mL. Binder B4 has an EC50 of 10 ng/mL.
